No end group written: not given here.
Target: hPD-L1 of the Cis-Bio HTRF assay kit (human, UniProt Q9NZQ7 19-238)
Assay: AlphaScreen or HTRF; Cis-Bio kit, 5 nM hPD-L1 and 50 nM hPD-1, 20 µL, dilution series of the inhibitor up to 5 mM, 2 h at room temperature, duplicates, normalized Hill fit
Conditions: both partners purified

B1: AUNP-12 peptide (peptide)
chain 1: SNTSESFKFRVTQLAPKAQIKE
chain 2: SNTSESF
modifications: also: bond at chain A 8 at chain B 7 to a chain's C-terminus via isopeptide
IC50: > 10 mM

— paper PMC6695792 (Molecules, 2019)
